The target of the experiment is HLA-A*02:01 (Homo sapiens, UniProt P04439, D140Y/D185E/D98H/E176V/E277Q/G131W/G231S/I119V/I121R/I166T/I218V/L300P/L318F/N151K/N90K/P208A/P217A/Q86G/Q94H/R138H/R169H/T345S). Description: MHC binding assay (UV-ligand exchange, beta2m ELISA). The following applies: binding to HLA-A*02:01 ranged by peptide exchange yield (UV-ligand exchange, β2m ELISA). In outline:
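Stabilised complexes were quantified via their β2m light chain: 100-fold-diluted monomers bound to streptavidin plates, then HRP anti-β2m at 2 ug/ml for 1 h at 37° C., TMB read at 450 nm. The value is the yield of UV-induced exchange of a photocleavable peptide for the candidate.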
For orientation: In an ELISA, binding on a coated surface is turned into a signal by an enzyme label.
As to “207 (GLTSTNAEV; listed as Homo sapiens) [compound 207]”, the Peptide exchange result is reported as ““++” (≥20% = ++)”.

As for “459 (ALITEVVRL; listed as Homo sapiens) [compound 459]”, the Peptide exchange result is ““++” (≥20% = ++)”.

Regarding “441 (ALLENPKMEL; listed as Homo sapiens) [compound 441]”, the Peptide exchange result was ““+++” (≥50 = +++)”.

Consider “91 (IMQDFPAEIFL; listed as Homo sapiens) [compound 91]”, for which the Peptide exchange entry was ““++++” (≥75% = ++++)”.

On to “362 (TLYGLSVLL; listed as Homo sapiens) [compound 362]”, for which the Peptide exchange result is recorded as ““+++” (≥50 = +++)”.

Take “577 (VMFEDGVLMRL; listed as Homo sapiens) [compound 577]”: the Peptide exchange result is on record as ““+++” (≥50 = +++)”.

Regarding “367 (SLQNHNHQL; listed as Homo sapiens) [compound 367]”, the Peptide exchange result is listed as ““+++” (≥50 = +++)”.

Regarding “496 (FLVEKQPPQV; listed as Homo sapiens) [compound 496]”, the Peptide exchange result was ““+++” (≥50 = +++)”.

Take “521 (MLLTKLPTI; listed as Homo sapiens) [compound 521]”: the Peptide exchange result was ““+++” (≥50 = +++)”.

Take “350 (ALLDVTHSELTV; listed as Homo sapiens) [compound 350]”: the Peptide exchange result was ““+++” (≥50 = +++)”.

In the case of “222 (NLIENVQRL; listed as Homo sapiens) [compound 222]”, the Peptide exchange result was ““++” (≥20% = ++)”.

For the substance “378 (ALGYFVPYV; listed as Homo sapiens) [compound 378]”, the Peptide exchange result is listed as ““+++” (≥50 = +++)”.

As for “135 (ALSEVDFQL; listed as Homo sapiens) [compound 135]”, the Peptide exchange entry was ““+++” (≥50 = +++)”.

Turning to “357 (SMHDLVLQV; listed as Homo sapiens) [compound 357]”, the Peptide exchange entry is on record as ““+++” (≥50 = +++)”.

As for “612 (YLYNEGLSV; listed as Homo sapiens) [compound 612]”, the Peptide exchange entry is ““+++” (≥50 = +++)”.

Regarding “341 (SQIALNEKLVNL; listed as Homo sapiens) [compound 341]”, the Peptide exchange result is on record as ““+++” (≥50 = +++)”.

As to “250 (ALSEEGLLVYL; listed as Homo sapiens) [compound 250]”, the Peptide exchange entry is ““+++” (≥50 = +++)”.

As to “480 (ALLEDSCHYL; listed as Homo sapiens) [compound 480]”, the Peptide exchange entry is on record as ““+++” (≥50 = +++)”.

For “28 (QLLDETSAITL; listed as Homo sapiens) [compound 28]”, the Peptide exchange result is recorded as ““+++” (≥50 = +++)”.

Turning to “239 (AAFAGKLLSV; listed as Homo sapiens) [compound 239]”, the Peptide exchange entry is listed as ““+++” (≥50 = +++)”.

Consider “393 (GLLDTQTSQVLTA; listed as Homo sapiens) [compound 393]”, for which the Peptide exchange entry is recorded as ““++” (≥20% = ++)”.

On to “252 (LLIGTDVSL; listed as Homo sapiens) [compound 252]”, for which the Peptide exchange entry is ““+++” (≥50 = +++)”.

As for “433 (AMLNEPWAV; listed as Homo sapiens) [compound 433]”, the Peptide exchange result is ““+++” (≥50 = +++)”.

Regarding “170 (RLQETLSAA; listed as Homo sapiens) [compound 170]”, the Peptide exchange result is ““+++” (≥50 = +++)”.

For “123 (NLWDLTDASVV; listed as Homo sapiens) [compound 123]”, the Peptide exchange result is reported as ““+++” (≥50 = +++)”.

On to “542 (RVWDISTVSSV; listed as Homo sapiens) [compound 542]”, for which the Peptide exchange entry was ““+++” (≥50 = +++)”.

As to “22 (IMEENPGIFAV; listed as Homo sapiens) [compound 22]”, the Peptide exchange result is given as ““+++” (≥50 = +++)”.

With “316 (ILLERLWYV; listed as Homo sapiens) [compound 316]”, the Peptide exchange result is reported as ““+++” (≥50 = +++)”.

With “472 (KLLEVSDDPQV; listed as Homo sapiens) [compound 472]”, the Peptide exchange entry is listed as ““+++” (≥50 = +++)”.

With “212 (ALWDQDNLSV; listed as Homo sapiens) [compound 212]”, the Peptide exchange result is ““++” (≥20% = ++)”.

With “108 (ALFPGVALLLA; listed as Homo sapiens) [compound 108]”, the Peptide exchange entry is ““++++” (≥75% = ++++)”.

With “276 (ALFTFSPLTV; listed as Homo sapiens) [compound 276]”, the Peptide exchange entry is reported as ““+++” (≥50 = +++)”.

With “17 (GLLPGDRLVSV; listed as Homo sapiens) [compound 17]”, the Peptide exchange result is reported as ““+++” (≥50 = +++)”.

With “161 (ALLEGVNTV; listed as Homo sapiens) [compound 161]”, the Peptide exchange result is reported as ““+++” (≥50 = +++)”.

In the case of “555 (YVLEGLKSV; listed as Homo sapiens) [compound 555]”, the Peptide exchange entry is given as ““+++” (≥50 = +++)”.

Take “187 (RQISIRGIVGV; listed as Homo sapiens) [compound 187]”: the Peptide exchange entry is reported as ““+++” (≥50 = +++)”.

As to “30 (LILDWVPYI; listed as Homo sapiens) [compound 30]”, the Peptide exchange entry is on record as ““+++” (≥50 = +++)”.

As to “137 (TLVLTLPTV; listed as Homo sapiens) [compound 137]”, the Peptide exchange entry is on record as ““++++” (≥75% = ++++)”.

With “601 (SAFPFPVTV; listed as Homo sapiens) [compound 601]”, the Peptide exchange entry is ““+++” (≥50 = +++)”.

Regarding “468 (YLRSVGDGETV; listed as Homo sapiens) [compound 468]”, the Peptide exchange result was ““+++” (≥50 = +++)”.

Take “568 (TLYDIAHTPGV; listed as Homo sapiens) [compound 568]”: the Peptide exchange result is reported as ““++++” (≥75% = ++++)”.

Regarding “53 (KMIETDILQKV; listed as Homo sapiens) [compound 53]”, the Peptide exchange result is reported as ““++++” (≥75% = ++++)”.

On to “164 (ALLPQPKNLTV; listed as Homo sapiens) [compound 164]”, for which the Peptide exchange result is on record as ““+++” (≥50 = +++)”.

On to “494 (ALQPEPIKV; listed as Homo sapiens) [compound 494]”, for which the Peptide exchange entry is ““++” (≥20% = ++)”.

As for “197 (ALGPEGGRV; listed as Homo sapiens) [compound 197]”, the Peptide exchange entry is listed as ““++” (≥20% = ++)”.

Take “584 (ALAEVAAMENV; listed as Homo sapiens) [compound 584]”: the Peptide exchange entry is recorded as ““+++” (≥50 = +++)”.

Consider “409 (LLDAMNYHL; listed as Homo sapiens) [compound 409]”, for which the Peptide exchange entry is ““++” (≥20% = ++)”.

In the case of “75 (GLLEVMVNL; listed as Homo sapiens) [compound 75]”, the Peptide exchange result is recorded as ““+++” (≥50 = +++)”.

As to “109 (IILSILEQA; listed as Homo sapiens) [compound 109]”, the Peptide exchange entry is reported as ““++++” (≥75% = ++++)”.

For “623 (YLVEDIQHI; listed as Homo sapiens) [compound 623]”, the Peptide exchange entry was ““+++” (≥50 = +++)”.

Turning to “614 (LLLPDQPPYHL; listed as Homo sapiens) [compound 614]”, the Peptide exchange result is reported as ““+++” (≥50 = +++)”.

With “541 (SMLEPVPEL; listed as Homo sapiens) [compound 541]”, the Peptide exchange result was ““+++” (≥50 = +++)”.

For the substance “327 (GLAPFTEGISFV; listed as Homo sapiens) [compound 327]”, the Peptide exchange entry is listed as ““+++” (≥50 = +++)”.

As to “269 (RVLEVGALQAV; listed as Homo sapiens) [compound 269]”, the Peptide exchange entry is recorded as ““++” (≥20% = ++)”.

With “4 (GIMEHITKI; listed as Homo sapiens) [compound 4]”, the Peptide exchange result was ““++++” (≥75% = ++++)”.

As to “618 (VLFDSESIGIYV; listed as Homo sapiens) [compound 618]”, the Peptide exchange result is ““+++” (≥50 = +++)”.

For the substance “608 (SLLSVSHAL; listed as Homo sapiens) [compound 608]”, the Peptide exchange result is recorded as ““+++” (≥50 = +++)”.

In the case of “307 (ALPVSLPQI; listed as Homo sapiens) [compound 307]”, the Peptide exchange result was ““+++” (≥50 = +++)”.

Turning to “189 (ALQRKLPYV; listed as Homo sapiens) [compound 189]”, the Peptide exchange result is ““+++” (≥50 = +++)”.

On to “76 (ILIDSIYKV; listed as Homo sapiens) [compound 76]”, for which the Peptide exchange result is ““+++” (≥50 = +++)”.

With “286 (YLFPGIPEL; listed as Homo sapiens) [compound 286]”, the Peptide exchange result is on record as ““+++” (≥50 = +++)”.

With “554 (LLMPSSEDLLL; listed as Homo sapiens) [compound 554]”, the Peptide exchange result is listed as ““+++” (≥50 = +++)”.

With “275 (YLVYILNEL; listed as Homo sapiens) [compound 275]”, the Peptide exchange result is on record as ““++” (≥20% = ++)”.

With “369 (GLFPEHLIDV; listed as Homo sapiens) [compound 369]”, the Peptide exchange entry was ““+++” (≥50 = +++)”.

For the substance “355 (SIQQSIERLLV; listed as Homo sapiens) [compound 355]”, the Peptide exchange entry is ““++” (≥20% = ++)”.

As to “552 (GLLDLPFRVGV; listed as Homo sapiens) [compound 552]”, the Peptide exchange result is given as ““++++” (≥75% = ++++)”.

With “284 (ILLSQTTGV; listed as Homo sapiens) [compound 284]”, the Peptide exchange entry is reported as ““+++” (≥50 = +++)”.

Turning to “408 (VLDDSIYLV; listed as Homo sapiens) [compound 408]”, the Peptide exchange result is reported as ““++” (≥20% = ++)”.

Turning to “530 (VMYADIGGMDI; listed as Homo sapiens) [compound 530]”, the Peptide exchange entry is given as ““+++” (≥50 = +++)”.

Consider “549 (AMLENASDIKL; listed as Homo sapiens) [compound 549]”, for which the Peptide exchange entry is ““+++” (≥50 = +++)”.

The record behind these values is patent US10738094B2, “Peptides and combination of peptides for use in immunotherapy against ovarian cancer and other cancers” (immatics biotechnologies GmbH, priority 2015, dated 2020).
